According to paper PMC2647316 (Nucleic Acids Research, 2008):

Molecular target: the molecule itself
Experiment: SEC

Row | Binder | stoichiometry N
1 | GkDnaC R145K146A double mutant (enzyme, Geobacillus kaustophilus HTA426, UniProt Q5KU75 1-454, looked up) MSELFSERIPPQSIEAEQAVLGAVFLDPTALTLASERLIPEDFYRAAHQKIFHAMLRVADKGEPVDLVTVTAELAALEQLEEVGGVSYLSELADSVPTAANVEYYARIVEEKSLLRRLIRTATSIAQDGYTREDEIDVLLDEAEAAIMEVSQRKHSGAFKNIKDVLVQTYDNIEMLHNRNGDITGIPTGFTELDRMTSGFQRSDLIIVAARPSVGKTAFALNIAQNVATKTNENVAIFSLEMSAQQLVMRMLCAEGNINAQNLRTGKLTPEDWGKLTMAMGSLSNAGIYIDDTPSIRVSDIRAKCRRLKQESGLGMVVIDYLQLIQGSGRNRENRQQEVSEISRSLKALARELEVPVIALSQLSRSVEQRQDKRPMMSDLRESGSIEQDADIVAFLYRDDYYNKDSENKNIIEIIIAKQRNGPVGTVQLAFIKEYNKFVNLERRFDEAQIPPGA | 6
2 | GkDnaC R344A (enzyme, Geobacillus kaustophilus HTA426, UniProt Q5KU75 1-454, looked up) MSELFSERIPPQSIEAEQAVLGAVFLDPTALTLASERLIPEDFYRAAHQKIFHAMLRVADKGEPVDLVTVTAELAALEQLEEVGGVSYLSELADSVPTAANVEYYARIVEEKSLLRRLIRTATSIAQDGYTREDEIDVLLDEAERKIMEVSQRKHSGAFKNIKDVLVQTYDNIEMLHNRNGDITGIPTGFTELDRMTSGFQRSDLIIVAARPSVGKTAFALNIAQNVATKTNENVAIFSLEMSAQQLVMRMLCAEGNINAQNLRTGKLTPEDWGKLTMAMGSLSNAGIYIDDTPSIRVSDIRAKCRRLKQESGLGMVVIDYLQLIQGSGRNRENRQQEVSEISASLKALARELEVPVIALSQLSRSVEQRQDKRPMMSDLRESGSIEQDADIVAFLYRDDYYNKDSENKNIIEIIIAKQRNGPVGTVQLAFIKEYNKFVNLERRFDEAQIPPGA | 6
3 | GkDnaC R117A (enzyme, Geobacillus kaustophilus HTA426, UniProt Q5KU75 1-454, looked up) MSELFSERIPPQSIEAEQAVLGAVFLDPTALTLASERLIPEDFYRAAHQKIFHAMLRVADKGEPVDLVTVTAELAALEQLEEVGGVSYLSELADSVPTAANVEYYARIVEEKSLLRALIRTATSIAQDGYTREDEIDVLLDEAERKIMEVSQRKHSGAFKNIKDVLVQTYDNIEMLHNRNGDITGIPTGFTELDRMTSGFQRSDLIIVAARPSVGKTAFALNIAQNVATKTNENVAIFSLEMSAQQLVMRMLCAEGNINAQNLRTGKLTPEDWGKLTMAMGSLSNAGIYIDDTPSIRVSDIRAKCRRLKQESGLGMVVIDYLQLIQGSGRNRENRQQEVSEISRSLKALARELEVPVIALSQLSRSVEQRQDKRPMMSDLRESGSIEQDADIVAFLYRDDYYNKDSENKNIIEIIIAKQRNGPVGTVQLAFIKEYNKFVNLERRFDEAQIPPGA | 6
4 | GkDnaC R120A (enzyme, Geobacillus kaustophilus HTA426, UniProt Q5KU75 1-454, looked up) MSELFSERIPPQSIEAEQAVLGAVFLDPTALTLASERLIPEDFYRAAHQKIFHAMLRVADKGEPVDLVTVTAELAALEQLEEVGGVSYLSELADSVPTAANVEYYARIVEEKSLLRRLIATATSIAQDGYTREDEIDVLLDEAERKIMEVSQRKHSGAFKNIKDVLVQTYDNIEMLHNRNGDITGIPTGFTELDRMTSGFQRSDLIIVAARPSVGKTAFALNIAQNVATKTNENVAIFSLEMSAQQLVMRMLCAEGNINAQNLRTGKLTPEDWGKLTMAMGSLSNAGIYIDDTPSIRVSDIRAKCRRLKQESGLGMVVIDYLQLIQGSGRNRENRQQEVSEISRSLKALARELEVPVIALSQLSRSVEQRQDKRPMMSDLRESGSIEQDADIVAFLYRDDYYNKDSENKNIIEIIIAKQRNGPVGTVQLAFIKEYNKFVNLERRFDEAQIPPGA | 6
5 | GkDnaC R145A (enzyme, Geobacillus kaustophilus HTA426, UniProt Q5KU75 1-454, looked up) MSELFSERIPPQSIEAEQAVLGAVFLDPTALTLASERLIPEDFYRAAHQKIFHAMLRVADKGEPVDLVTVTAELAALEQLEEVGGVSYLSELADSVPTAANVEYYARIVEEKSLLRRLIRTATSIAQDGYTREDEIDVLLDEAEAKIMEVSQRKHSGAFKNIKDVLVQTYDNIEMLHNRNGDITGIPTGFTELDRMTSGFQRSDLIIVAARPSVGKTAFALNIAQNVATKTNENVAIFSLEMSAQQLVMRMLCAEGNINAQNLRTGKLTPEDWGKLTMAMGSLSNAGIYIDDTPSIRVSDIRAKCRRLKQESGLGMVVIDYLQLIQGSGRNRENRQQEVSEISRSLKALARELEVPVIALSQLSRSVEQRQDKRPMMSDLRESGSIEQDADIVAFLYRDDYYNKDSENKNIIEIIIAKQRNGPVGTVQLAFIKEYNKFVNLERRFDEAQIPPGA | 6
6 | GkDnaC R330A (enzyme, Geobacillus kaustophilus HTA426, UniProt Q5KU75 1-454, looked up) MSELFSERIPPQSIEAEQAVLGAVFLDPTALTLASERLIPEDFYRAAHQKIFHAMLRVADKGEPVDLVTVTAELAALEQLEEVGGVSYLSELADSVPTAANVEYYARIVEEKSLLRRLIRTATSIAQDGYTREDEIDVLLDEAERKIMEVSQRKHSGAFKNIKDVLVQTYDNIEMLHNRNGDITGIPTGFTELDRMTSGFQRSDLIIVAARPSVGKTAFALNIAQNVATKTNENVAIFSLEMSAQQLVMRMLCAEGNINAQNLRTGKLTPEDWGKLTMAMGSLSNAGIYIDDTPSIRVSDIRAKCRRLKQESGLGMVVIDYLQLIQGSGANRENRQQEVSEISRSLKALARELEVPVIALSQLSRSVEQRQDKRPMMSDLRESGSIEQDADIVAFLYRDDYYNKDSENKNIIEIIIAKQRNGPVGTVQLAFIKEYNKFVNLERRFDEAQIPPGA | 6
7 | GkDnaC K50A (enzyme, Geobacillus kaustophilus HTA426, UniProt Q5KU75 1-454, looked up) MSELFSERIPPQSIEAEQAVLGAVFLDPTALTLASERLIPEDFYRAAHQAIFHAMLRVADKGEPVDLVTVTAELAALEQLEEVGGVSYLSELADSVPTAANVEYYARIVEEKSLLRRLIRTATSIAQDGYTREDEIDVLLDEAERKIMEVSQRKHSGAFKNIKDVLVQTYDNIEMLHNRNGDITGIPTGFTELDRMTSGFQRSDLIIVAARPSVGKTAFALNIAQNVATKTNENVAIFSLEMSAQQLVMRMLCAEGNINAQNLRTGKLTPEDWGKLTMAMGSLSNAGIYIDDTPSIRVSDIRAKCRRLKQESGLGMVVIDYLQLIQGSGRNRENRQQEVSEISRSLKALARELEVPVIALSQLSRSVEQRQDKRPMMSDLRESGSIEQDADIVAFLYRDDYYNKDSENKNIIEIIIAKQRNGPVGTVQLAFIKEYNKFVNLERRFDEAQIPPGA | 6
8 | GkDnaC R332A (enzyme, Geobacillus kaustophilus HTA426, UniProt Q5KU75 1-454, looked up) MSELFSERIPPQSIEAEQAVLGAVFLDPTALTLASERLIPEDFYRAAHQKIFHAMLRVADKGEPVDLVTVTAELAALEQLEEVGGVSYLSELADSVPTAANVEYYARIVEEKSLLRRLIRTATSIAQDGYTREDEIDVLLDEAERKIMEVSQRKHSGAFKNIKDVLVQTYDNIEMLHNRNGDITGIPTGFTELDRMTSGFQRSDLIIVAARPSVGKTAFALNIAQNVATKTNENVAIFSLEMSAQQLVMRMLCAEGNINAQNLRTGKLTPEDWGKLTMAMGSLSNAGIYIDDTPSIRVSDIRAKCRRLKQESGLGMVVIDYLQLIQGSGRNAENRQQEVSEISRSLKALARELEVPVIALSQLSRSVEQRQDKRPMMSDLRESGSIEQDADIVAFLYRDDYYNKDSENKNIIEIIIAKQRNGPVGTVQLAFIKEYNKFVNLERRFDEAQIPPGA | 6

Molecular target: the molecule itself
Experiment: crystal structure

Row | Binder | stoichiometry N
9 | Geobacillus kaustophilus HTA426 DnaC helicase, wild type (enzyme, UniProt Q5KU75 1-454, looked up) MSELFSERIPPQSIEAEQAVLGAVFLDPTALTLASERLIPEDFYRAAHQKIFHAMLRVADKGEPVDLVTVTAELAALEQLEEVGGVSYLSELADSVPTAANVEYYARIVEEKSLLRRLIRTATSIAQDGYTREDEIDVLLDEAERKIMEVSQRKHSGAFKNIKDVLVQTYDNIEMLHNRNGDITGIPTGFTELDRMTSGFQRSDLIIVAARPSVGKTAFALNIAQNVATKTNENVAIFSLEMSAQQLVMRMLCAEGNINAQNLRTGKLTPEDWGKLTMAMGSLSNAGIYIDDTPSIRVSDIRAKCRRLKQESGLGMVVIDYLQLIQGSGRNRENRQQEVSEISRSLKALARELEVPVIALSQLSRSVEQRQDKRPMMSDLRESGSIEQDADIVAFLYRDDYYNKDSENKNIIEIIIAKQRNGPVGTVQLAFIKEYNKFVNLERRFDEAQIPPGA | 6

molecular target: T1, GkDnaC replicative helicase WT (Geobacillus kaustophilus HTA426, UniProt Q5KU75 1-454); experiment: X-ray crystal structure
T1 sequence: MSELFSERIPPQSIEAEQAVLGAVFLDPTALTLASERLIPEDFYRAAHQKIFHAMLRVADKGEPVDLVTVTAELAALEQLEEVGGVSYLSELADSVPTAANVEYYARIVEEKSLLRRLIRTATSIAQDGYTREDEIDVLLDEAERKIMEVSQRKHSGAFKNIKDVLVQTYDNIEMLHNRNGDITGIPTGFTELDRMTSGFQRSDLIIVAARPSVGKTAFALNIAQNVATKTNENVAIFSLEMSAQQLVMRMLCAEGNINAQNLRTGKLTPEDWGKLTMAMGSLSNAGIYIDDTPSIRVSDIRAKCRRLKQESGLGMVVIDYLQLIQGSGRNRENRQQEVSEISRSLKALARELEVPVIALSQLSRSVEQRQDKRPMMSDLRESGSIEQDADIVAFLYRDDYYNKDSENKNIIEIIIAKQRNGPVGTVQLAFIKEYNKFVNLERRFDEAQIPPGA

Row | Binder | binding result
10 | TTTTTTTTTTTTTTT (ssDNA) [(dT)15] | binds
